This note sets out measurements from PMC7335163.

This experiment has as its target GFP-tagged R2910Q UNC80 mutant (mouse) (mouse) (UniProt Q8BLN6). Kind of experiment: co-IP; HEK293T co-transfected with NALCN or UNC79 and GFP-tagged UNC80 constructs; IP with anti-GFP, blot anti-NALCN or anti-UNC79; RIPA buffer (IP buffer with 0.5% deoxycholate and 0.1% SDS); 4 °C (Fig. 8a-c, f, g).
Sequence of UniProt Q8BLN6 (Q8BLN6 whole entry R2910Q): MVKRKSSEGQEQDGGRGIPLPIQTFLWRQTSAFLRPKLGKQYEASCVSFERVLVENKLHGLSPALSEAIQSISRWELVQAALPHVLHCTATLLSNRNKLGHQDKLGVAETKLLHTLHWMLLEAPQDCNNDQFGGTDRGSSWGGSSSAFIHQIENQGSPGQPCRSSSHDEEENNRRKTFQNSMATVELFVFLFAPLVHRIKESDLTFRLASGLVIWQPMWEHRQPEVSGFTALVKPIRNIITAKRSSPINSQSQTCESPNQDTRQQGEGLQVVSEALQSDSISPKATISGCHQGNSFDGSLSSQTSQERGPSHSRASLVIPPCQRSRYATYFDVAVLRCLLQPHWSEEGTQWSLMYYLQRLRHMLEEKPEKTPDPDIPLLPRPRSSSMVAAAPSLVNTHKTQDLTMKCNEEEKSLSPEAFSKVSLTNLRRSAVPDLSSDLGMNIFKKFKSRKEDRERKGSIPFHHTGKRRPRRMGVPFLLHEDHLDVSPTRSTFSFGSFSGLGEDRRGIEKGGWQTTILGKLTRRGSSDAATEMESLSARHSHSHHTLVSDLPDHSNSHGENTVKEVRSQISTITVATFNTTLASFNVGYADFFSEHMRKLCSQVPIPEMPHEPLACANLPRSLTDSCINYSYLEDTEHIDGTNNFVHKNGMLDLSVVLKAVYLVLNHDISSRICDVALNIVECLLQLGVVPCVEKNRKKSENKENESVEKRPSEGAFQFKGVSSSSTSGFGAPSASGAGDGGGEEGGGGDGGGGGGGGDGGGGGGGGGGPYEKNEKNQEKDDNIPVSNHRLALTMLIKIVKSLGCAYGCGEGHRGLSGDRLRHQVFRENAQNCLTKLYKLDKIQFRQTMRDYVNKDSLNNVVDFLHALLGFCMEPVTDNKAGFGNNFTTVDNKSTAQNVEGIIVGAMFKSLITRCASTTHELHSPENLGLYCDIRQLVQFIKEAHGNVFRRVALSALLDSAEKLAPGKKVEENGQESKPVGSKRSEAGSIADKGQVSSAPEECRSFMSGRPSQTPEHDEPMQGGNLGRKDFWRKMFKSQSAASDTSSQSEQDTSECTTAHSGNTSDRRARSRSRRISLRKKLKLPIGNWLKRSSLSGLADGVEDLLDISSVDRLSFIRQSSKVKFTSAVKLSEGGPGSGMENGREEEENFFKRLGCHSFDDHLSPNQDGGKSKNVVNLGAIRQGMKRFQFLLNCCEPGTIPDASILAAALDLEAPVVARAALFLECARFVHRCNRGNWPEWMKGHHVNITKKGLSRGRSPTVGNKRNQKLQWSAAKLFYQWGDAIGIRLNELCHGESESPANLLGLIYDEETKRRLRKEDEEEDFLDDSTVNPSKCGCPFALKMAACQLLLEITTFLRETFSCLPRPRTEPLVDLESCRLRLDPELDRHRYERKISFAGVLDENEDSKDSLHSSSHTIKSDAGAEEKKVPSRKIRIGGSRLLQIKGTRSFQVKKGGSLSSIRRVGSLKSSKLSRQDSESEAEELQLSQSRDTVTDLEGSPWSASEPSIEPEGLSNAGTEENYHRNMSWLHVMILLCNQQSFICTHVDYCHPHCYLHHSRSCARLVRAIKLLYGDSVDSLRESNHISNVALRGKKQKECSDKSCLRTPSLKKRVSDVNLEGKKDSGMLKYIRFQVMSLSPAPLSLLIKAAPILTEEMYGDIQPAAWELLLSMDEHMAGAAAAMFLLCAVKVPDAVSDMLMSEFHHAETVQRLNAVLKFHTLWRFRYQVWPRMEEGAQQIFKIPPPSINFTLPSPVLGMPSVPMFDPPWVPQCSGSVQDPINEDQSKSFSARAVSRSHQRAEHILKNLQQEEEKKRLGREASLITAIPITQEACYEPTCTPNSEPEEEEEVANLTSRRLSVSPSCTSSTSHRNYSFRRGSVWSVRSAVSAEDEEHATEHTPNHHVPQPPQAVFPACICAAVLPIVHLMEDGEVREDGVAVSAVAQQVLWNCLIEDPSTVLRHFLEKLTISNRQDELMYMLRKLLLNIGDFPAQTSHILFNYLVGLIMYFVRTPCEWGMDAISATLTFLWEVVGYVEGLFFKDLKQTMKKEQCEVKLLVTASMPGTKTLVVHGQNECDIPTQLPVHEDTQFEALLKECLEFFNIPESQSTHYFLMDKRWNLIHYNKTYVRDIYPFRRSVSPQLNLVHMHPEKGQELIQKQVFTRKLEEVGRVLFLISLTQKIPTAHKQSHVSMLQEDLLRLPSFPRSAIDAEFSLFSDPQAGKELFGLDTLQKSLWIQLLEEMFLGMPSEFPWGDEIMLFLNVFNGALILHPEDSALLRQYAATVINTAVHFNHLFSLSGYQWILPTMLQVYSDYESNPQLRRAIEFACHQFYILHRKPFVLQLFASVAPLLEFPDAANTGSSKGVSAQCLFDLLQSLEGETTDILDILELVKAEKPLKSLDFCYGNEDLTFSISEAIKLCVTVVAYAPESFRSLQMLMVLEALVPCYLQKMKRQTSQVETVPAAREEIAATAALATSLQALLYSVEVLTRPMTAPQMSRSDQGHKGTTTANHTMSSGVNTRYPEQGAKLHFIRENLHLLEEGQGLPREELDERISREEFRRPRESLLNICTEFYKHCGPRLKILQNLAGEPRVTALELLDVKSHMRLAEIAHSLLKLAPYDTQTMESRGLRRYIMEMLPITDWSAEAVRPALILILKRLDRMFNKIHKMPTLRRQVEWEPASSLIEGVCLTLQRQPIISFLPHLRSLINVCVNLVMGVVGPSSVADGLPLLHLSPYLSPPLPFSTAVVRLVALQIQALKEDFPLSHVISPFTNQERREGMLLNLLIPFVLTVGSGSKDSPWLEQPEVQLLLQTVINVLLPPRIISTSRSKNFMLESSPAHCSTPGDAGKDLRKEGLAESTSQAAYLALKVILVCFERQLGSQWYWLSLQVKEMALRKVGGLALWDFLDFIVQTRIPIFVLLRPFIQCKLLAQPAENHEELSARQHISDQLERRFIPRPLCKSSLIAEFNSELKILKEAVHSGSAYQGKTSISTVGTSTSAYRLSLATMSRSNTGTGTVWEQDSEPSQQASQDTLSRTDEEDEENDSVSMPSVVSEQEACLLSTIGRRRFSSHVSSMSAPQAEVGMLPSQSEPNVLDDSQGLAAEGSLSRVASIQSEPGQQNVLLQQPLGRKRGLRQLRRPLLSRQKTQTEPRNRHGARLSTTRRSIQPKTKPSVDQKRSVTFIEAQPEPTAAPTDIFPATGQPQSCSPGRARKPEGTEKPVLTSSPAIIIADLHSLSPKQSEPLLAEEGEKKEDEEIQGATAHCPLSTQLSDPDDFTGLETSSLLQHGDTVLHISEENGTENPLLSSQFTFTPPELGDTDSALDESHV

Regarding “UNC79 (mouse), wild type, non-tagged, Q0KK59 1-2596”, the reduction of apparent UNC80–UNC79 affinity (co-precipitated UNC79) against WT UNC80 is 60%.
